Tests used:
[1] = tested on: galectin-3 secreted by PC3M cells after EGF (and PDGF) treatment, tyrosine phosphorylated (galectin-3 Tyr(P)-107)
[2] = tested on: recombinant wild type full-length human galectin-3, His-tagged (unphosphorylated)
[3] = tested on: recombinant wild type galectin-3 phosphorylated in vitro by c-Abl (galectin-3 Tyr(P)-107), His-tagged
Sequence of recombinant wild type galectin-3 phosphorylated in vitro by c-Abl (galectin-3 Tyr(P)-107), His-tagged (chain, as listed by the source): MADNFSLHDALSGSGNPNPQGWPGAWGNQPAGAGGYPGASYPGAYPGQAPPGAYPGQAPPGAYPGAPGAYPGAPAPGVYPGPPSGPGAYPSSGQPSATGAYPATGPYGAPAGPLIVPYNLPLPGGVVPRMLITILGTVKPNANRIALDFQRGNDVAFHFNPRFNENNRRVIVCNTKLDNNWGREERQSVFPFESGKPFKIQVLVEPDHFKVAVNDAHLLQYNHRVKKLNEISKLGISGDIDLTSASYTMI

Sequence of galectin-3 secreted by PC3M cells after EGF (and PDGF) treatment, tyrosine phosphorylated (galectin-3 Tyr(P)-107) (chain, as listed by the source): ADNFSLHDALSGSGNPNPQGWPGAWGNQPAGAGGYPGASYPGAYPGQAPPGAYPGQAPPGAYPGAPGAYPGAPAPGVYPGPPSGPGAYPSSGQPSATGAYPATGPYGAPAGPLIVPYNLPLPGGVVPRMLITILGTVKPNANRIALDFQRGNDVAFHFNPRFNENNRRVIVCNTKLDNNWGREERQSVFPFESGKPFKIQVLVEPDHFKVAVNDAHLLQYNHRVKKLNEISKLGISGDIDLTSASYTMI

## endogenous PSA secreted by LNCaP cells
[1]
  cleavage of secreted galectin-3 in conditioned medium of LNCaP/PC3M co-culture with and without EGF (Western blot with HL31): phosphorylation blocks cleavage of galectin-3 in conditioned medium

## active prostate specific antigen (PSA)
[2]
  cleavage of galectin-3 by PSA (2 h at room temperature, Western blot with anti-galectin-3 antibody): FIG. 1A demonstrated that phosphorylation of Tyr-107 blocks the cleavage of galectin-3 by PSA
[3]
  cleavage of galectin-3 by PSA (2 h at room temperature, Western blot with anti-galectin-3 and anti-Tyr(P) antibodies): phosphorylation of Tyr-107 blocks the cleavage of galectin-3 by PSA

## phosphatase and tensin homolog (PTEN)
[3]
  dephosphorylation of galectin-3 Tyr(P)-107 (PTEN for 2 hr at 30 C, pTyr and Gal-3 blots): This was then proven by phosphorylating galectin-3 in vitro with active c-Abl and then treating it with PTEN
